Test results as given in IntAct's records for PubMed 19571008.

B1: Non-homologous end-joining protein 1 (Saccharomyces cerevisiae), Q06148 (parent)
chain: MDSELKGQQLSDAEWCVKKINGEGNCLLLFLPMSSPTTIVMIVLVSLERLVPYVFKLSQTQLSQQCQSQGFTDSISLNLIKLKLMDILQAPQEINQIGLVDSNLVFSFDVSADITVSINSVPSHVTKDMFYMILQSLCMLLLKLVNLSTQYHYVQRDILNEKQKCLDFLLISLRDLDGGSKVISQWAPENSKNYESLQQCTDDDIIKKLLHKGKFQHQEFLADSLKTLLSLRNKFQDVSRFEESGELNKKERVRFPAVNHFYNDDFELQADPTNEARPNSRGKIKPKTDFKPKSRESSTSSQLRLENFSESEATPEKTKSSSSLVEEYPQKKRKFGKVRIKN

Variants of: B1
Settings: with srs2_yeast SRS2, P12954
Sequence of srs2_yeast SRS2, P12954 (P12954 whole entry): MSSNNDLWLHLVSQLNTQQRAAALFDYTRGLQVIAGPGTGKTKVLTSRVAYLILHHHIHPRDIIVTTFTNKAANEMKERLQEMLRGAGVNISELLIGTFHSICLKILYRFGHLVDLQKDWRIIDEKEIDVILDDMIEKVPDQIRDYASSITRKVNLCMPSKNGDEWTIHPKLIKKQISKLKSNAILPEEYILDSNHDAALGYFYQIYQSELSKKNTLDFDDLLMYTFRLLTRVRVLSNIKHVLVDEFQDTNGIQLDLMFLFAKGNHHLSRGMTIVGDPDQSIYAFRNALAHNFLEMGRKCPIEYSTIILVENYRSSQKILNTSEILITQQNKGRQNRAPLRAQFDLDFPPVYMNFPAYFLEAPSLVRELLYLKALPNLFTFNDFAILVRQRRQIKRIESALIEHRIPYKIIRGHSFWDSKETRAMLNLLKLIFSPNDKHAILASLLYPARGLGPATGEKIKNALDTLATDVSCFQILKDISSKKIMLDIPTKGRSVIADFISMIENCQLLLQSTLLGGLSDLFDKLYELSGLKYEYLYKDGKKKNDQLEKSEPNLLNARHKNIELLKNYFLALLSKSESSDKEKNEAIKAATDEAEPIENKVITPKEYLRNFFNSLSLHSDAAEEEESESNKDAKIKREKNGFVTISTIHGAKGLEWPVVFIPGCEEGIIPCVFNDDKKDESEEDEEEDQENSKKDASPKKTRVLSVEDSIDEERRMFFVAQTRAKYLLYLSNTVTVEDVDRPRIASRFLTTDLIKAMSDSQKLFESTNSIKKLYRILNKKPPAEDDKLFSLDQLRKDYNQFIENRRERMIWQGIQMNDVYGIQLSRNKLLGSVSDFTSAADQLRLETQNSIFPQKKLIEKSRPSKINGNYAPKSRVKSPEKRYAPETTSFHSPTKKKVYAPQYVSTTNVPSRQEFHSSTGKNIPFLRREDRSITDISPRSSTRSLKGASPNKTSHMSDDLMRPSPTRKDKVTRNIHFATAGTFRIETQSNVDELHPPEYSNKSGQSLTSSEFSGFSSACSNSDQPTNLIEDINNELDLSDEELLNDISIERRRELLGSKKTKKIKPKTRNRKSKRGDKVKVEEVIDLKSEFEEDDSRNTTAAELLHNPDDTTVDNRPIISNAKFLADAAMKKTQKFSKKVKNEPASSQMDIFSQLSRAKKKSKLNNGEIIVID

Effect of a mutation on the interaction, disrupting interaction:
MDSELKGQQLSDAEWCVKKINGEGNCLLLFLPMSSPTTIVMIVLVSLERLVPYVFKLSQTQLSQQCQSQGFTDSISLNLIKLKLMDILQAPQEINQIGLVDSNLVFSFDVSADITVSINSVPSHVTKDMFYMILQSLCMLLLKLVNLSTQYHYVQRDILNEKQKCLDFLLISLRDLDGGSKVISQWAPENSKNYESLQQCTDDDIIKKLLHKGKFQHQEFLADSLKTLLSLRNKFQDVSRFEESGELNKKERVRFPAVNHFYNDDFELQADPTNEARPNSRGKIKPKTDFKPKSRESATSSQLRLENFSESEATPEKTKSSSSLVEEYPQKKRKFGKVRIKN [S298A]
MDSELKGQQLSDAEWCVKKINGEGNCLLLFLPMSSPTTIVMIVLVSLERLVPYVFKLSQTQLSQQCQSQGFTDSISLNLIKLKLMDILQAPQEINQIGLVDSNLVFSFDVSADITVSINSVPSHVTKDMFYMILQSLCMLLLKLVNLSTQYHYVQRDILNEKQKCLDFLLISLRDLDGGSKVISQWAPENSKNYESLQQCTDDDIIKKLLHKGKFQHQEFLADSLKTLLSLRNKFQDVSRFEESGELNKKERVRFPAVNHFYNDDFELQADPTNEARPNSRGKIKPKTDFKPKSREASTSSQLRLENFSESEATPEKTKSSSSLVEEYPQKKRKFGKVRIKN [S297A]
MDSELKGQQLSDAEWCVKKINGEGNCLLLFLPMSSPTTIVMIVLVSLERLVPYVFKLSQTQLSQQCQSQGFTDSISLNLIKLKLMDILQAPQEINQIGLVDSNLVFSFDVSADITVSINSVPSHVTKDMFYMILQSLCMLLLKLVNLSTQYHYVQRDILNEKQKCLDFLLISLRDLDGGSKVISQWAPENSKNYESLQQCTDDDIIKKLLHKGKFQHQEFLADSLKTLLSLRNKFQDVSRFEESGELNKKERVRFPAVNHFYNDDFELQADPTNEARPNSRGKIKPKTDFKPKSREAATSSQLRLENFSESEATPEKTKSSSSLVEEYPQKKRKFGKVRIKN [S297A;S298A]
